This assay deals with KDM4A-I71AzF. Briefly: CASI: photo-crosslinking with HEK293T cell extracts, StrepTactin enrichment and LC-MS/MS proteomics.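 Further: lysates from HEK293T cells pretreated with a KDM4 inhibitor to raise proteome methylation, affinity-purified after ±UV, gel-resolved, trypsin-digested, with exclusive unique peptides per protein averaged per condition.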 It is filed as binding, human. To be noted: sheet "Final results but with 0.01".

B1: DPOG1_HUMAN (protein, UniProt P54098 1-1239, looked up)
DNA polymerase subunit gamma-1: MSRLLWRKVAGATVGPGPVPAPGRWVSSSVPASDPSDGQRRRQQQQQQQQQQQQQPQQPQVLSSEGGQLRHNPLDIQMLSRGLHEQIFGQGGEMPGEAAVRRSVEHLQKHGLWGQPAVPLPDVELRLPPLYGDNLDQHFRLLAQKQSLPYLEAANLLLQAQLPPKPPAWAWAEGWTRYGPEGEAVPVAIPEERALVFDVEVCLAEGTCPTLAVAISPSAWYSWCSQRLVEERYSWTSQLSPADLIPLEVPTGASSPTQRDWQEQLVVGHNVSFDRAHIREQYLIQGSRMRFLDTMSMHMAISGLSSFQRSLWIAAKQGKHKVQPPTKQGQKSQRKARRGPAISSWDWLDISSVNSLAEVHRLYVGGPPLEKEPRELFVKGTMKDIRENFQDLMQYCAQDVWATHEVFQQQLPLFLERCPHPVTLAGMLEMGVSYLPVNQNWERYLAEAQGTYEELQREMKKSLMDLANDACQLLSGERYKEDPWLWDLEWDLQEFKQKKAKKVKKEPATASKLPIEGAGAPGDPMDQEDLGPCSEEEEFQQDVMARACLQKLKGTTELLPKRPQHLPGHPGWYRKLCPRLDDPAWTPGPSLLSLQMRVTPKLMALTWDGFPLHYSERHGWGYLVPGRRDNLAKLPTGTTLESAGVVCPYRAIESLYRKHCLEQGKQQLMPQEAGLAEEFLLTDNSAIWQTVEELDYLEVEAEAKMENLRAAVPGQPLALTARGGPKDTQPSYHHGNGPYNDVDIPGCWFFKLPHKDGNSCNVGSPFAKDFLPKMEDGTLQAGPGGASGPRALEINKMISFWRNAHKRISSQMVVWLPRSALPRAVIRHPDYDEEGLYGAILPQVVTAGTITRRAVEPTWLTASNARPDRVGSELKAMVQAPPGYTLVGADVDSQELWIAAVLGDAHFAGMHGCTAFGWMTLQGRKSRGTDLHSKTATTVGISREHAKIFNYGRIYGAGQPFAERLLMQFNHRLTQQEAAEKAQQMYAATKGLRWYRLSDEGEWLVRELNLPVDRTEGGWISLQDLRKVQRETARKSQWKKWEVVAERAWKGGTESEMFNKLESIATSDIPRTPVLGCCISRALEPSAVQEEFMTSRVNWVVQSSAVDYLHLMLVAMKWLFEEFAIDGRFCISIHDEVRYLVREEDRYRAALALQITNLLTRCMFAYKLGLNDLPQSVAFFSAVDIDRCLRKEVTMDCKTPSNPTGMERRYGIPQGEALDIYQIIELTKGSLEKRSQPGP
With B1, the “Fold change (+UV/-UV)” value is listed as 0.

B2: SYVM_HUMAN (protein, UniProt Q5ST30 27-1063, looked up)
Valine--tRNA ligase, …: SVSTQSEPHGSPISRRNREAKQKRLREKQATLEAEIAGESKSPAESIKAWRPKELVLYEIPTKPGEKKDVSGPLPPAYSPRYVEAAWYPWWVREGFFKPEYQARLPQATGETFSMCIPPPNVTGSLHIGHALTVAIQDALVRWHRMRGDQVLWVPGSDHAGIATQAVVEKQLWKERGVRRHELSREAFLREVWQWKEAKGGEICEQLRALGASLDWDRECFTMDVGSSVAVTEAFVRLYKAGLLYRNHQLVNWSCALRSAISDIEVENRPLPGHTQLRLPGCPTPVSFGLLFSVAFPVDGEPDAEVVVGTTRPETLPGDVAVAVHPDDSRYTHLHGRQLRHPLMGQPLPLITDYAVQPHVGTGAVKVTPAHSPADAEMGARHGLSPLNVIAEDGTMTSLCGDWLQGLHRFVAREKIMSVLSEWGLFRGLQNHPMVLPICSRSGDVIEYLLKNQWFVRCQEMGARAAKAVESGALELSPSFHQKNWQHWFSHIGDWCVSRQLWWGHQIPAYLVVEDHAQGEEDCWVVGRSEAEAREVAAELTGRPGAELTLERDPDVLDTWFSSALFPFSALGWPQETPDLARFYPLSLLETGSDLLLFWVGRMVMLGTQLTGQLPFSKVLLHPMVRDRQGRKMSKSLGNVLDPRDIISGVEMQVLQEKLRSGNLDPAELAIVAAAQKKDFPHGIPECGTDALRFTLCSHGVQAGDLHLSVSEVQSCRHFCNKIWNALRFILNALGEKFVPQPAEELSPSSPMDAWILSRLALAAQECERGFLTRELSLVTHALHHFWLHNLCDVYLEAVKPVLWHSPRPLGPPQVLFSCADLGLRLLAPLMPFLAEELWQRLPPRPGCPPAPSISVAPYPSACSLEHWRQPELERRFSRVQEVVQVLRALRATYQLTKARPRVLLQSSEPGDQGLFEAFLEPLGTLGYCGAVGLLPPGAAAPSGWAQAPLSDTAQVYMELQGLVDPQIQLPLLAARRYKLQKQLDSLTARTPSEGEAGTQRQQKLSSLQLELSKLDKAASHLRQLMDEPPAPGSPEL
As for B2, the “Fold change (+UV/-UV)” value was 0.5.

The record behind these values is PMC10540216, “Activity Guided Azide-methyllysine Photo-trapping for Substrate Profiling of Lysine Demethylases” (Journal of the American Chemical Society, 2023).
